From patent US10662235B2, “Cysteine engineered fibronectin type III domain binding molecules” (Janssen Biotech, Inc., priority 2016, dated 2020)
Changes are numbered by the printed parent chain. Names and notes keep the numbering of the source. “Also recorded” adds a separate entry of the source.

Tests used:
[1] = Body weight loss / tolerability in H292-HGF xenograft study; details: treatment and 2 weeks observation
Protocol: At the time of routine monitoring, the animals were checked for any effects of tumor growth and treatments on normal behavior, such as mobility, visual estimation of food and water consumption, body weight gain/loss (body weights were measured twice weekly), eye/hair matting and any other abnormal effect.
Animals for which the body weight loss exceeded 20%, or for which the mean tumor size of the group exceeds 2000 mm^3 were euthanized. The study was terminated after two weeks of observation after the final dose.

[2] = system: H292-HGF human lung cancer xenograft; assay: Efficacy of bispecific molecule and other inhibitors in H292-HGF xenograft model (tumor volume, T/C, T-C); type: in vivo, SCID/Beige mice; details: for antitumor activity: H292-HGF xenograft
Protocol: The H292-HGF cells were maintained in vitro in RPMI1640 medium supplemented with fetal bovine serum (10% v/v), and L-glutamine (2 mM) at 37° C. in an atmosphere of 5% CO2 in air. The cells were routinely subcultured twice weekly by trypsin-EDTA treatment. The cells growing in an exponential growth phase were harvested and counted for tumor inoculation.
Each mouse was inoculated subcutaneously at the right flank region with H292-HGF tumor cells (2×10^6) in 0.1 ml of PBS with cultrex (1:1) for tumor development. The treatments were started when the mean tumor size reached 139 mm^3. […] The date of tumor cell inoculation was denoted as day 0.
Before commencement of treatment, all animals were weighed and the tumor volumes were measured. Since the tumor volume can affect the effectiveness of any given treatment, mice were assigned into groups using randomized block design based upon their tumor volumes. […] The randomized block design was used to assign experimental animals to groups. First, the experimental animals were divided into homogeneous blocks according to their initial tumor volume. Secondly, within each block, randomization of experimental animals to treatments was conducted.
The major endpoint was whether tumor growth can be delayed or tumor bearing mice can be cured. Tumor size was measured twice weekly in two dimensions using a caliper, and the volume was expressed in mm^3 using the formula: V=0.5a×b^2 where a and b are the long and short diameters of the tumor, respectively. The tumor size was then used for calculations of both T-C and T/C values. T-C was calculated with T as the time (in days) required for the mean tumor size of the treatment group to reach 1000 mm^3, and C was the time (in days) for the mean tumor size of the control group to reach the same size. The T/C value (in percent) was an indication of antitumor efficacy; T and C were the mean volume of the treated and control groups, respectively, on a given day. Complete tumor regression (CR) is defined as tumors that are reduced to below the limit of palpation (62.5 mm^3). Partial tumor regression (PR) is defined as tumors that are reduced from initial tumor volume. A minimum duration of CR or PR in 3 or more successive tumor measurements is required for a CP or PR to be considered durable.
Statistical analyses of difference in tumor volume among the groups were evaluated using a one-way ANOVA followed by individual comparisons using Games-Howell (equal variance not assumed). All data were analyzed using SPSS 18.0. p<0.05 was considered to be statistically significant.

[3] = system: H292-HGF tumor xenografts; assay: Tumor efficacy study with bispecific EGFR/c-Met molecules (tumor growth inhibition); type: in vivo, SCID Beige mice; details: 25 mg/kg three times per week (FIG. 10)
Protocol: One week after implantation, mice were stratified into groups with equivalent tumor volumes (mean tumor volume=77.9+/−1.7 mm^3). Mice were dosed three times per week with the bispecific molecules and tumor volumes were recorded twice weekly.

MDA-MB-435 cells = assay: Cytotoxicity assay of cytotoxin conjugates in EGFR-negative MDA-MB-435 cells; type: cell-based, human; details: EGFR-negative cell line; CellTiter Glo or IncuCyte object count at 66, 72 or 90 hour
Protocol: (§1) Cell killing was assessed by measuring viability of the EGFR-overexpressing human tumor cell line H1573 following exposure to the cysteine variant-cytotoxin conjugates. Cells were plated in black-well, clear bottomed, tissue culture-treated plates (Falcon 353219) at 7000/well in 100 μL/well of phenol red free RPMI media (Gibco 11835-030) with 5% fetal bovine serum (Gibco). Cells were allowed to attach overnight at 37° C. in a humidified 5% CO2 atmosphere. Medium was aspirated from 96-well plate and cells were treated with 50 uL of fresh media and 50 uL of 2× inhibitor made up in fresh media. Cell viability was determined by an endpoint assay with Cell TiterGlo (Promega) at 70 hours. IC50 values were determined by fitting data to the equation for a sigmoidal dose response with variable slope using GraphPad Prism 5 (GraphPad Software). Table 11 reports IC50 values obtained from analysis of the CellTiter Glo data.
Conjugates consisting of ECB147 cysteine variants, 83v2-cys, or Tencon-cys linked to a cytotoxic tubulin inhibitor from the auristatin family (FIG. 2) were tested for target-dependent cytotoxicity in cancer cells. […] Cell killing was assessed by measuring viability of the EGFR-overexpressing human tumor cell lines H1573 and A431 as well as the EGFR-negative tumor cell line MDA-MB-435 following exposure to the protein-cytotoxin conjugates using the procedure described in Example 4.

[4] = Analytical size exclusion chromatography (aggregation state, percent monomer); type: physicochemical; details: NEM-conjugated cysteine variants; SEC, Abs280
Protocol: Size exclusion chromatography was used to determine the aggregation state of the FN3 domains binding EGFR. Aliquots (10 μL) of each purified FN3 domain were injected onto a Superdex 75 5/150 column (GE Healthcare) at a flow rate of 0.3 mL/min in a mobile phase of PBS pH 7.4. Elution from the column was monitored by absorbance at 280 nm.
The percent monomer for each protein was determined by integrating the Abs280 signal and comparing the peak in the monomer region (5.5-6 minutes) to the peaks in the oligomer region (4-5.3 minutes).

EGFR = EGFR (Homo sapiens, UniProt P00533); assay: EGFR binding assay (ELISA) of NEM-conjugated cysteine variants relative to parent
[5] = Thermal stability by differential scanning calorimetry; type: physicochemical; details: cysteine-NEM conjugates; for First Scan Tm: DSC 25-100° C., 1° C. per minute; for Second Scan Tm: second identical scan
Protocol: The thermal stability of cysteine-NEM conjugates was assessed by differential scanning calorimetry (DSC). The only the conjugates tested were those determined to express at high levels, conjugate efficiently, and retain EGFR binding. Additionally, cysteine variants within the BC and FG loops were excluded. Stability data was generated by heating a 400 μL aliquot of the variant from 25° C. to 100° C. at a scan rate of 1° C. per minute in a VP-DSC instrument (MicroCal). A second identical scan was completed on the sample in order to assess the reversibility of thermal folding/unfolding. Data was fitted to a 2-state unfolding model in order to calculate the melting temperature (Table 10).
Thermal Stability of c-Met-Binding FN3 Domains Differential scanning calorimetry in PBS was used to assess the stability of each FN3 domain.

H1573 cells = assay: Cytotoxicity assay of cytotoxin conjugates in H1573 cells; type: cell-based, human; details: MMAF conjugates, Cell TiterGlo at 70 hours, read-out: IC50 (cell killing)
Protocol: as §1, with “Cells were plated in black-well, clear bottomed, tissue culture-treated plates (Falcon 353219) at 7000/well in 100 μL/well of phenol red free RPMI media (Gibco 11835-030) with 5% fetal bovine serum (Gibco).” left out, “Software).” for “Software). Table 11 reports IC50 values obtained from analysis of the CellTiter Glo data.”
Conjugates consisting of ECB147 cysteine variants, 83v2-cys, or Tencon-cys linked to a cytotoxic tubulin inhibitor from the auristatin family (FIG. 2) were tested for target-dependent cytotoxicity in cancer cells. The inhibitor was linked to the cysteine-containing protein via a non-cleavable PEG4 linker or an enzyme-cleavable valine-citrulline or valine-lysine linker.

## C#Cc1cccc(Nc2ncnc3cc(OCCOC)c(OCCOC)cc23)c1 [Erlotinib]
[1]
  toxicity / body weight loss / tolerability: More severe body weight loss

## C[C@@H](Oc1cc(-c2cnn(C3CCNCC3)c2)cnc1N)c1c(Cl)ccc(F)c1Cl [Crizotinib]
[2]
  antitumor activity: no antitumor activity
[2]; day 23
  T/C value: 120%
[1]
  toxicity / body weight loss / tolerability: More severe body weight loss

B1: ECB39: bispecific P53A1R5-17v2 / P114AR7P94-A3 linked to albumin binding domain, SEQ ID 121 (protein)
chain: MLPAPKNLVVSEVTEDSARLSWADPHGFYDSFLIQYQESEKVGEAIVLTVPGSERSYDLTGLKPGTEYTVSIYGVHNVYKDTNMRGLPLSAIFTTAPAPAPAPAPLPAPKNLVVSRVTEDSARLSWTAPDAAFDSFWIRYFEFLGSGEAIVLTVPGSERSYDLTGLKPGTEYVVNIMGVKGGKISPPLSAIFTTAPAPAPAPAPLAEAKVLANRELDKYGVSDYYKNLINNAKTVEGVKALLDEILAALP
modifications: Bispecific EGFR/c-Met binding molecule
[3]
  tumor growth inhibition (TGI): showed the most efficacy

B2: ECB18: bispecific P54AR4-83v2 / P114AR5P74-A5 linked to albumin binding domain, SEQ ID 118 (protein)
chain: MLPAPKNLVVSEVTEDSARLSWDDPWAFYESFLIQYQESEKVGEAIVLTVPGSERSYDLTGLKPGTEYTVSIYGVHNVYKDTNMRGLPLSAIFTTAPAPAPAPAPLPAPKNLVVSRVTEDSARLSWTAPDAAFDSFWIRYDEVVVGGEAIVLTVPGSERSYDLTGLKPGTEYYVNILGVKGGSISVPLSAIFTTAPAPAPAPAPLAEAKVLANRELDKYGVSDYYKNLINNAKTVEGVKALLDEILAALP
modifications: Bispecific EGFR/c-Met binding molecule
[3]
  tumor growth inhibition (TGI): delay in tumor growth

B3: ECB38: bispecific P54AR4-83v2 / P114AR7P94-A3 linked to albumin binding domain, SEQ ID 120 (protein)
chain: B1 chain with A23D, H26W, G27A, D30E
modifications: Bispecific EGFR/c-Met binding molecule
[2]
  antitumor activity: complete tumor regression (CR) in all mice; also recorded: complete response
[3]
  tumor growth inhibition (TGI): showed the most efficacy
[1]
  toxicity / body weight loss / tolerability: Slight toxicity; also recorded: tolerated in 7 out of 10 mice

B4: 83v2cy5-mal-PEG4-VC-MMAE (conjugate)
chain: MLPAPKNLVVSEVTEDSARLSWDDPWAFYESFLIQYQESEKVGEAIVLTVPGSERSYDLTGLKPGTEYTVSIYGVHNVYKDTNMRGLPLSAIFTTGGHHHHHHC
MDA-MB-435 cells
  IC50: 512 nM

B5: 83v2cy5-mal-PEG4-VK-MMAE (conjugate)
chain: B4 chain
MDA-MB-435 cells
  IC50: 62 nM

B6: T68C (protein)
chain 1: MLPAPKCLVVSEVTEDSARLSWDDPWAFYESFLIQYQESEKVGEAIVLTVPGSERSYDLTGLKPGTEYTVSIYGVHNVYKDTNMRGLPLSAIFTT
chain 2: LPAPKCLVVSEVTEDSARLSWDDPWAFYESFLIQYQESEKVGEAIVLTVPGSERSYDLTGLKPGTEYTVSIYGVHNVYKDTNMRGLPLSAIFTT
modifications: EGFR binding FN3 domain; EGFR-binding FN3 domain
[4]
  Percent monomer: 100%
EGFR; 10 nM
  EGFR binding relative to P54AR4-83v2 parent, 10 nM variant in assay: 0.83
EGFR; 100 nM
  EGFR binding relative to P54AR4-83v2 parent, 100 nM variant in assay: 1.04
EGFR; 500 nM
  EGFR binding relative to P54AR4-83v2 parent, 500 nM variant in assay: 0.95
[5]
  First Scan Tm: 72 °C
  Second Scan Tm: 72 °C

B7: I91C (protein)
chain: B6 chain 2 with C6N, I91C
[4]
  Percent monomer: 100%
H1573 cells
  IC50: 0.54 nM
[5]
  First Scan Tm: 70 °C
  Second Scan Tm: 69 °C
